Experimental data as given in patent US20040228866A1 (LUDWIG INSTITUTE FOR CANCER RESEARCH, published 2004).

B1: ASPP2 (1-1128) (other)
chain: MMPMFLTVYLSNNEQHFTEVPVTPETICRDVVDLCKEPGESDCHLAEVWCGSERPVADNERMFDVLQRFGSQRNEVRFFLRHERPPGRDIVSGPRSQDPSLKRNGVKVPGEYRRKENGVNSPRMDLTLAELQEMASRQQQQIEAQQQLLATKEQRLKFLKQQDQRQQQQVAEQEKLKRLKEIAENQEAKLKKVRALKGHVEQKRLSNGKLVEEIEQMNNLFQQKQRELVLAVSKVEELTRQLEMLKNGRIDSHHDNQSAVAELDRLYKELQLRNKLNQEQNAKLQQQRECLNKRNSEVAVMDKRVNELRDRLWKKKAALQQKENLPVSSDGNLPQQAASAPSRVAAVGPYIQSSTMPRMPSRPELLVKPALPDGSLVIQASEGPMKIQTLPNMRSGAASQTKGSKIHPVGPDWSPSNADLFPSQGSASVPQSTGNALDQVDDGEVPLREKEKKVRPFSMFDAVDQSNAPPSFGTLRKNQSSEDILRDAQVANKNVAKVPPPVPTKPKQINLPYFGQTNQPPSDIKPDGSSQQLSTVVPSMGTKPKPAGQQPRVLLSPSIPSVGQDQTLSPGSKQESPPAAAVRPFTPQPSKDTLLPPFRKPQTVAASSIYSMYTQQQAPGKNFQQAVQSALTKTHTRGPHFSSVYGKPVIAAAQNQQQHPENIYSNSQGKPGSPEPETEPVSSVQENHENERIPRPLSPTKLLPFLSNPYRNQSDADLEALRKKLSNAPRPLKKRSSITEPEGPNGPNIQKLLYQRTTIAAMETISVPSYPSKSASVTASSESPVEIQNPYLHVEPEKEVVSLVPESLSPEDVGNASTENSDMPAPSPGLDYEPEGVPDNSPNLQNNPEEPNPEAPHVLDVYLEEYPPYPPPPYPSGEPEGPGEDSVSMRPPEITGQVSLPPGKRTNLRKTGSERIAHGMRVKFNPLALLLDSSLEGEFDLVQRIIYEVDDPSLPNDEGITALHNAVCAGHTEIVKFLVQFGVNVNAADSDGWTPLHCAASCNNVQVCKFLVESGAAVFAMTYSDMQTAADKCEEMEEGYTQCSQFLYGVQEKMGIMNKGVIYALWDYEPQNDDELPMKEGDCMTIIHREDEDEIEWWWARLNDKEGYVPRNLLGLYPRIKPRQRSLA
B2: Apoptosis Stimulating Protein 1 (ASPP1) (other)
chain: MMPMILTVFLSNNEQILTEVPITPETTCRDVVEFCKEPGEGSCHLAEVWRGNERPIPFDHMMYEHLQIWGPRREEVKFFLRHEDSPTENSEQGGRQTQEQRTQRNVINVPGDKRTEYGVGNPRVELTLSELQDMAARQQQQIENQQQMLVAKEQRLHFLKQQERRQQQSISENEKLQKLKERVEAQENKLKKIRAMRGQVDYSKIMNGNLSAEIERFSAMFQEKKQEVQTAILRVDQLSQQLEDLKKGKLNGFQSYNGKLTGPAAVELKRLYQELQIRNQLNQEQNSKLQQQKELLNKRNMEVAMMDKRISELRERLYGKKIQLNRVNGTSSPQSPLSTSGRVAAVGPYIQVPSAGSFPVLGDPIKPQSLSIASNAAHGRSKSANDGNWPTLKQNSSSSVKPVQVAGADWKDPSVEGSVKQGTVSSQPVPFSALGPTEKPGIEIGKVPPPIPGVGKQLPPSYGTYPSPTPLGPGSTSSLERRKEGSLPRPSAGLPSRQRPTLLPATGSTPQPGSSQQIQQRISVPPSPTYPPAGPPAFPAGDSKPELPLTVAIRPFLADKGSRPQSPRKGPQTVNSSSIYSMYLQQATPPKNYQPAAHSALNKSVKAVYGKPVLPSGSTSPSPLPFLHGSLSTGTPQPQPPSESTEKEPEQDGPAAPADGSTVESLPRPLSPTKLTPIVHSPLRYQSDADLEALRRKLANAPRPLKKRSSITEPEGPGGPNIQKLLYQRFNTLAGGMEGTPFYQPSPSQDFMGTLADVDNGNTNANGNLEELPPAQPTAPLPAEPAPSSDANDNELPSPEPEELICPQTTHQTAEPAEDNNNNVATVPTTEQIPSPVAEAPSPGEEQVPPAPLPPASHPPATSTNKRTNLKKPNSERTGHGLRVRFNPLALLLDASLEGEFDLVQRIIYEVEDPSKPNDEGITPLHNAVCAGHHHIVKFLLDFGVNVNAADSDGWTPLHCAASCNSVHLCKQLVESGAAIFASTISDIETAADKCEEMEEGYIQCSQFLYGVQEKLGVMNKGVAYALWDYEAQNSDELSFHEGDALTILRRKDESETEWWWARLGDREGYVPKNLLGLYPRIKPRQRTLA

Key:
[1] = molecular target: p53 (wild type) (human, UniProt P04637 1-393); assay: cell-based or functional assay
[2] = molecular target: T1, p63γ (UniProt Q9H3D4-5 40-487, limits assumed); assay: cell-based or functional assay
T1 sequence (looked up): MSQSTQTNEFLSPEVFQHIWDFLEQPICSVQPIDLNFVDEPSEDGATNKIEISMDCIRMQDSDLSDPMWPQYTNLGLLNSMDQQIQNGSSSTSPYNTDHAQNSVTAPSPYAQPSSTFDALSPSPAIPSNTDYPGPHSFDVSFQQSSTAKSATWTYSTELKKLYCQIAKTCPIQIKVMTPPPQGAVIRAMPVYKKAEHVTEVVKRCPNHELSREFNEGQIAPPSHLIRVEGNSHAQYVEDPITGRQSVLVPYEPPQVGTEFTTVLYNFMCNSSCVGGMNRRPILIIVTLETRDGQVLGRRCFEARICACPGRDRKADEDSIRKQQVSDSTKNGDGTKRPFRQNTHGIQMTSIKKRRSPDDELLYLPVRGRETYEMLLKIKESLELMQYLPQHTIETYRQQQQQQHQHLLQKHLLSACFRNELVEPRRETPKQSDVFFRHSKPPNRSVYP

p53 (wild type), sequence (P04637 whole entry): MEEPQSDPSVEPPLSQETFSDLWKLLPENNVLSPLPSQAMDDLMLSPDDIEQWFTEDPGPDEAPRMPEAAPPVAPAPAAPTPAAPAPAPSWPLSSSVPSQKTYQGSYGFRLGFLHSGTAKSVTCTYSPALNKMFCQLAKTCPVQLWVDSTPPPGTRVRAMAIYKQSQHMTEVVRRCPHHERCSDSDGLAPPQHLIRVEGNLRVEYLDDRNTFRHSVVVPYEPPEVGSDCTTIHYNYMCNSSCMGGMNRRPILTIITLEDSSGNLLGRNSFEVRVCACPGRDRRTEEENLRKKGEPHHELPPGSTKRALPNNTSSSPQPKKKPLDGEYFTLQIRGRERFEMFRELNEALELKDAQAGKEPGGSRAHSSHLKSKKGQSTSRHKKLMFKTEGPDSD

Binder	transactivation function on the Bax promoter (Bax-luc reporter) [1] [fold]	transactivation function on the Bax promoter (Bax-luc reporter) [2] [fold]
B1	20	7
B2	~6	4
